The text below walks through data of patent US20240067706A1 (CENTER FOR EXCELLENCE IN MOLECULAR CELL SCIENCE CHINESE …, published 2024).

Test [1] deals with T1, SARS-CoV-2 S1 protein (SARS-CoV-2, UniProt P0DTC2 16-685).
T1 construct: domain: S1
The test is described as follows: ELISA, coated protein.

Test [2] addresses T2, SARS-CoV S protein expressed on the cell surface (SARS-CoV, UniProt P59594 14-1255).
T2 construct: whole, on cells
The test can be described thus: flow cytometry on CHO cells transfected with S protein.

B1: fully human monoclonal antibody 76E1 (antibody, V domains shown)
VH: EVQLVESGGGVVQPGGSLRLSCEASGFSFKDYGMHWIRQTPGKGLEWISRISGDTRGTSYVDSVKGRFIVSRDNSRNSLFLQMNSLRSEDTALYYCAALVIVAAGDDFDLWGQGTVVTVSS
VL: QSALTQPLSVSGSPGQSVTISCTGSSSDIGSYNFVSWYRQYPGKAPKVMIYEVNKRPSGVPVRFSGSKSGNTASLTVSGLQHEDEADYYCCSYGGRNNLIFGGGTKLTVL
notes: also called 76E1 antibody
Turning to B1, the binding result in test [1] is “no binding (tested: 10 µg/ml initial test concentration)”; in test [2], “binds”.
